Measurements as given in patent US20090317415A1 (UNIVERSITY COLLEGE CARDIFF CONSULTANTS, published 2009).

Molecular target: T1, HLA-A*0201 expressed on T2 cells (human)
T1 construct: also called HLA-A2
Experiment: cell-based peptide binding assay on T2 cells

SLLACALEV (also called Rb peptide) [Rb485-493 (Rb7) peptide]
binding result: binds
